In the supplement of paper PMC10724198:
± gives the standard deviation of the averaged measurements.

Experiments:
[1] = test system: Saccharomyces cerevisiae; assay: protein stability index of tFT-peptide fusion (C-terminal peptide) (PSI (0-1 scale)); higher = more stable (slower turnover)
Procedure: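 MPS profiling in S. cerevisiae of the tFT-X12 degron library: putative degron peptides plus stable controls, 12 aa, fused to the C-terminus of a sfGFP-mCherry timer. Cells are FACS-sorted into 8 mCherry/sfGFP bins and deep-sequenced. PSI runs from 0 (unstable) to 1 (stable). Backgrounds are wild type, das1Δ and doa10Δ at 30 °C, and wild type, das1Δ, cdc34-1 and cdc53-1 at 37 °C; 2-3 technical replicates each.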

[2] = test system: Saccharomyces cerevisiae; assay: as above; settings: genetic background: wild type; temperature: 30 C
[3] = genetic background: cdc34-1, temperature: 37 C
[4] = genetic background: cdc53-1, temperature: 37 C
[5] = genetic background: das1 deletion, temperature: 30 C
[6] = genetic background: das1 deletion, temperature: 37 C
[7] = genetic background: doa10 deletion, temperature: 30 C
[8] = genetic background: wild type, temperature: 30 C
[9] = genetic background: wild type, temperature: 37 C
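Note: PSI is a weighted mean of sequencing reads over stability bins, variants kept only with over 10 reads, mCherry proximal and sfGFP distal, peptide attached via GGGS linker.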

Sequence | protein stability index [1, 3] | protein stability index [1, 4] | protein stability index [1, 5] | protein stability index [1, 6] | protein stability index [1, 7] | protein stability index [1, 8] | protein stability index [1, 9] | protein stability index [2]
VTSVARVVLHLL | 0.526 ± 0.018 | 0.681 ± 0.031 | 0.606 ± 0.027 | 0.7016 ± 0.0041 | 0.0931 ± 0.019 | 0.115 ± 0.021 | 0.165 ± 0.0027 | 0.3069 ± 0.0026
VVCPCIIYVPGV | 0.619 ± 0.039 | 0.643 ± 0.011 | 0.455 ± 0.014 | 0.637 ± 0.011 | 0.455 ± 0.016 | 0.461 ± 0.0066 | 0.613 ± 0.021 | 0.466 ± 0.022
VVFLLGPLVCGG | 0.5042 ± 0.0031 | 0.514 ± 0.018 | 0.392 ± 0.021 | 0.535 ± 0.0069 | 0.375 ± 0.016 | 0.397 ± 0.019 | 0.5125 ± 0.0021 | 0.44 ± 0.025
VVFVGRSIVVLT | 0.508 ± 0.019 | 0.525 ± 0.014 | 0.358 ± 0.038 | 0.567 ± 0.019 | 0.336 ± 0.037 | 0.371 ± 0.03 | 0.519 ± 0.019 | 0.419 ± 0.047
VVFWFPFVLRCC | 0.0644 ± 0.019 | 0.0927 ± 0.0061 | 0.193 ± 0.03 | 0.2959 ± 0.0026 | 0.0639 ± 0.0037 | 0.0509 ± 0.0053 | 0.072 ± 0.034 | 0.065 ± 0.017
VVFWWGHLLVSA | 0.03535 ± 6.3e-05 | 0.0483 ± 0.016 | 0.118 ± 0.031 | 0.113 ± 0.009 | 0.0877 ± 0.021 | 0.0919 ± 0.021 | 0.0854 ± 0.0074 | 0.142 ± 0.024
VVLVVVWWGGVE | 0.242 ± 0.051 | 0.421 ± 0.074 | 0.249 ± 0.034 | 0.4872 ± 0.0025 | 0.21 ± 0.003 | 0.258 ± 0.029 | 0.403 ± 0.036 | 0.3931 ± 0.00072
VVMASSIIVVAG | 0.0539 ± 0.0055 | 0.0512 ± 0.027 | 0.11 ± 0.097 | 0.216 ± 0.0022 | 0.105 ± 0.029 | 0.142 ± 0.058 | 0.167 ± 0.027 | 0.2528 ± 0.001
VVVLFGRLVVIC | 0.48 ± 0.01 | 0.611 ± 0.019 | 0.448 ± 0.033 | 0.598 ± 0.017 | 0.327 ± 0.0075 | 0.332 ± 0.029 | 0.5402 ± 0.003 | 0.431 ± 0.048
VVVYWGSLKRVC | 0.5772 ± 0.0046 | 0.669 ± 0.012 | 0.584 ± 0.02 | 0.7 ± 0.0057 | 0.104 ± 0.0089 | 0.117 ± 0.027 | 0.289 ± 0.0064 | 0.263 ± 0.041
VWFCCLFFCFFV | 0.432 ± 0.021 | 0.448 ± 0.0086 | 0.378 ± 0.028 | 0.47 ± 0.011 | 0.4276 ± 0.0036 | 0.367 ± 0.012 | 0.41 ± 0.012 | 0.404 ± 0.028
VWSWFVIYFFFC | 0.358 ± 0.025 | 0.388 ± 0.0079 | 0.335 ± 0.029 | 0.497 ± 0.013 | 0.366 ± 0.02 | 0.324 ± 0.014 | 0.444 ± 0.02 | 0.368 ± 0.0054
VYCTFLFAYTLP | 0.556 ± 0.036 | 0.591 ± 0.032 | 0.443 ± 0.015 | 0.602 ± 0.0074 | 0.435 ± 0.0053 | 0.443 ± 0.015 | 0.59 ± 0.0096 | 0.483 ± 0.0062
VYEVELSVRVTV | 0.552 ± 0.03 | 0.56 ± 0.013 | 0.435 ± 0.026 | 0.548 ± 0.0089 | 0.404 ± 0.0053 | 0.447 ± 0.035 | 0.51 ± 0.0073 | 0.522 ± 0.063
VYVVLGTVYVTY | 0.195 ± 0.014 | 0.325 ± 0.013 | 0.194 ± 0.025 | 0.381 ± 0.0087 | 0.166 ± 0.0049 | 0.187 ± 0.031 | 0.362 ± 0.021 | 0.273 ± 0.025
